This data set addresses hTop2βcore (human topoisomerase IIβ catalytic core) (human, UniProt Q02880 450-1206). Put plainly: X-ray crystallography (2.54 Å); 100 mM MgCl2; crystallized with 2 mM compound C-Bi (not visible in the structure); cleavage complex; Crystallization: protein and DNA (1.2-fold molar ratio to protein) with 2 mM C-Bi; reservoir 100 mM MgCl2, 50 mM sodium citrate pH 5.3, 20% MPD, 0.05% ethyl acetate, 4 °C; protein buffer 30 mM Tris-HCl pH 7.5, 70 mM NaCl, 2 mM β-mercaptoethanol, 1 mM EDTA. As to conditions: protein: recombinant; chain copies: 2; blunt; self-complementary, 2 copies of the same strand.

Results on one molecule are retold here after article PMC6175940, “Increasing the distance between two monomers of topoisomerase IIβ under the action of antitumor agent 4β-sulfur-(benzimidazole) 4′-demethylepipodophyllotoxin”.

hTop2βcore (human topoisomerase IIβ catalytic core), sequence (Q02880 450-1206): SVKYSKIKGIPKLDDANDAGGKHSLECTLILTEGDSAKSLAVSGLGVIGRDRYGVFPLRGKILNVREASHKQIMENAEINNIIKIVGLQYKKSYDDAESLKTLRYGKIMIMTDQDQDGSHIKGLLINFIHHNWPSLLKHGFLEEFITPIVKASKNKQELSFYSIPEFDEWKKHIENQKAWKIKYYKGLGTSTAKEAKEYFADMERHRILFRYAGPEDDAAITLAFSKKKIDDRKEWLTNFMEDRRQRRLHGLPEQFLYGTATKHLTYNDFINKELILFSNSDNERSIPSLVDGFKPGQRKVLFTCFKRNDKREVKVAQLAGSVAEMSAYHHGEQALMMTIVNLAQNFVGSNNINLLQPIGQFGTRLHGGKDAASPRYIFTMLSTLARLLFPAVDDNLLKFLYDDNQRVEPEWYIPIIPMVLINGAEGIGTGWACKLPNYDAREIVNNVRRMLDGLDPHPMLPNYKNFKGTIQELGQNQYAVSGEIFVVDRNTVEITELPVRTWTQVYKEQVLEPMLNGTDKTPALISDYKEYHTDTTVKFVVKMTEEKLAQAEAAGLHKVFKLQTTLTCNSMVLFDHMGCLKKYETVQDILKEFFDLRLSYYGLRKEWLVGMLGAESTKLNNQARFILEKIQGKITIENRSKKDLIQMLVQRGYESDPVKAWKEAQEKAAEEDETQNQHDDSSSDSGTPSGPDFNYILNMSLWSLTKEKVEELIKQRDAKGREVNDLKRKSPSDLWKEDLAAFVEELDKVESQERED

B1: 20-bp DNA substrate for crystallography (dsDNA)
DNA 1: AGCCGAGCTGCAGCTCGGCT
DNA 2: AGCCGAGCTGCAGCTCGGCT
Turning to B1, the binding result is on record as “binds”.
